Experiment [1] has as its target T1, human IL-18BP (Homo sapiens, UniProt O95998).
T1 sequence (O95998 31-194): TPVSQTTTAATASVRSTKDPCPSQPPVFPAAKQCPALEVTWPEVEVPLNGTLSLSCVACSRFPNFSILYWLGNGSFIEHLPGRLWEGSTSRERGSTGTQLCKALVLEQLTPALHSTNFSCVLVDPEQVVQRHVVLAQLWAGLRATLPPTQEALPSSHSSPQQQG
Nature of the experiment: IL-18BP binding AlphaLISA assay (Example 4 / 17B). The conditions noted are these: IL-18 binding protein AlphaLISA. The method, then: A human IL-18BP AlphaLISA Assay Kit is used to determine the binding affinity of each immunocytokine and IL-18 variant for IL-18BP, which detected the presence of free form IL-18BP.
Sixteen three-fold serial dilutions of IL-18 analytes are prepared in aMEM medium supplemented with 20% FCS, Glutamax, and 25 μM β-mercaptoethanol in the presence of 5 ng/mL of His-tagged human IL-18BP. Final IL-18 analytes concentration range from 2778 nM to 0.2 pM.
After 1 hr incubation at room temperature, free IL-18BP levels are measured using a […]. In a 384 well OPTIplate, 5 μL of 5× Anti-IL-18BP acceptor beads are added to 7.5 μL of an IL-18/IL-18BP mix. After 30 min incubation at room temperature with shaking, 5 μL of biotinylated Anti-IL-18BP antibodies are added to each well. The plate is incubated further for 1 hr at room temperature. Under subdued light, 12.5 μL of 2× streptavidin (SA) donor beads are pipetted into each well, and the wells are incubated with shaking for an additional 30 min at room temperature. The AlphaLisa signal is then measured on an Enspire plate reader with 680 and 615 nm as excitation and emission wavelengths, respectively. The dissociation constant (KD) is calculated based on a variable slope, four parameter analysis using GraphPad PRISM software.
17B—IL-18 BP AlphaLISA assay—An IL-18 binding protein AlphaLISA experiment substantially as described in Example 4 was performed on IL-18 polypeptide which can be incorporated into immunocytokine compositions as provided herein to assess ability to bind to IL-18BP.
On the technique in general: In Alpha technology, singlet oxygen from a donor bead excites a nearby acceptor bead.

In experiment [2] the target is T2, human IL-18 binding protein isoform a (IL-18BPa) (Homo sapiens, UniProt O95998).
T2 sequence (O95998 31-194): T1 sequence (O95998 31-194)
Nature of the experiment: Cellular IL-18 Binding protein resistance assay in NK-92 cells (Example 13). In kind it is cell-based. The conditions noted are these: NK92 cells, IL-18 analyte 1 nM final, IL-18BPa titrated, 1 ng/ml IL-12; read-out: IC50 IL-18BP-mediated inhibition of IFNγ secretion. As to the method: The NK cell line NK-92 derived from a patient with lymphoma (ATCC, Cat #CRL-2407) was cultured in aMEM medium supplemented with 20% FCS-Glutamax, 25 μM B-mercaptoEthanol, and 100 IU/ml of recombinant Human Interleukin-2 (TL-2). On the day of experiment, cells were harvested and washed with aMEM medium without IL-2. After counting, cells were seeded at 100 000 cells/well in a 384 well titer plate and incubated at 37° C./5% CO2. Sixteen 2-fold serial dilutions of Fc fused human IL-18 binding protein isoform a (IL-18BPa; R&D systems, Cat #119-BP) were prepared in aMEM medium-1 ng/ml IL-12 containing 2 nM of each IL-18 variants and were added to the NK-92 cells. Final IL-18 analytes concentration was 1 nM and final IL-18BPa concentrations ranged from to 566 nM down to 17 pM.
After 16-20 h incubation at 37° C./5% CO2, 5 μl of supernatant were carefully transferred to a 384 microwells OPTIplate (Perkin Elmer; Cat #6007270) and Interferon-gamma (IFNγ) levels measured using the Human IFNγ AlphaLISA Assay Kit (Perkin Elmer, Cat #AL217C). […] AlphaLisa signal was then measured on an Enspire plate reader (Perkin Elmer) using 680 and 615 nm as excitation and emission wavelengths respectively. Half maximal inhibitory concentration (IC50) was calculated based on a variable slope, four parameter analysis using GraphPad PRISM software.

Experiment [3] deals with PD-1 positive (transduced) KG-1 cells. Nature of the experiment: IFN gamma secretion assay in PD-1 transduced KG-1 cells (Example 11). Format: cell-based, human. The conditions noted are these: ratio of EC50 in PD-1 positive and parental KG-1 cells. As to the method: The KG-1 cell line was used to generate a PD-1 expressing cell line and furthermore, to measure IFNγ release upon incubation with TL-18 variants and corresponding TL-18 immunocytokines.
PD-1 expressing cell line generation: Briefly, KG-1 cells were transduced using lentiviral particles carrying the human PD-1 gene (PDCD1 NM_005018; Origene, CAT #: RC210364L3V) at a MOI (Multiplicity of Infection) of 30. Spinfection was performed at 1260 g during 90 min at 37° C. in the presence of 5 μg/ml of Polybrene and 10 mM of HEPES in complete culture media (RPMI, 10% FBS, 1% L-Glutamine). […]
IFNγ release was assessed in PD-1 positive (transduced) KG-1 cells, as well as in the parental PD-1 negative cells. […] The lowest concentration assessed was 0.05 fM. After incubation, IFNγ release was measured using the LEGENDplex custom human mix and match KIT (Biolegend LEGENDplex™ Human IFN-γ Capture Bead B5, 13×#740942, LEGENDplex™ P 1 Essential Immune Response Panel Detection Abs, #740931, LEGENDplex™ Buffer Set A #740368). […] Fluorescence measurements were done with a Quanteon Flow Cytometer from Acea Biosciences. For analysis, MFI values (median fluorescence intensity) were exported and plotted against concentrations used. The EC50 values (half maximal effective concentration) were calculated based on a variable slope and four parameter analysis using GraphPad PRISM software version 9.

Residue numbers refer to the chain shown, from its start. Names may count otherwise.

The results in this text go back to US12383631B2, “Immune antigen specific IL-18 immunocytokines and uses thereof” (Bright Peak Therapeutics AG, priority 2022, dated 2025).

B1: SEQ ID NO: 71: IL-18 polypeptide: N-terminal G, E6K, V11I, C38A, K53A, T63A, C76A, C127A (protein)
chain: GYFGKLKSKLSIIRNLNDQVLFIDQGNRPLFEDMTDSDARDNAPRTIFIISMYADSQPRGMAVAISVKCEKISTLSAENKIISFKEMNPPDNIKDTKSDIIFFQRSVPGHDNKMQFESSSYEGYFLAAEKERDLFKLILKKEDELGDRSIMFTVQNED
modifications: N-terminal G
notes: IL-18 polypeptide: N-terminal G, E6K, V11I, C38A, K53A, T63A, C76A, C127A
Turning to B1, in experiment [1], the Kd was above 2.8 µM.

B2: SEQ ID NO: 70: IL-18 polypeptide: N-terminal G, E6K, V11I, C38A, M51G, K53A, T63A, C76A, C127A (protein)
chain: B1 chain with M52G
modifications: N-terminal G
notes: IL-18 polypeptide: N-terminal G, E6K, V11I, C38A, M51G, K53A, T63A, C76A, C127A
In experiment [1], B2 returned a Kd above 2.8 µM.

B3: SEQ ID NO: 30: IL-18 polypeptide: E6K, V11I, C38A, K53A, T63A, C76A, C127A (protein)
chain: YFGKLKSKLSIIRNLNDQVLFIDQGNRPLFEDMTDSDARDNAPRTIFIISMYADSQPRGMAVAISVKCEKISTLSAENKIISFKEMNPPDNIKDTKSDIIFFQRSVPGHDNKMQFESSSYEGYFLAAEKERDLFKLILKKEDELGDRSIMFTVQNED
In the case of B3, the IC50 in experiment [2] was determined as 0.488 µM. In addition, in experiment [3], the “PD-1^pos/PD-1^neg EC50 ratio” value turned out to be 1.336.

In general, Kd refers to the concentration at which binding is half-saturated. Read a high Kd as lower affinity. As a reminder, the IC50 is the point on the concentration scale where inhibition reaches its midpoint.
